Here are results for 1 protein from FireProtDB (doi:10.1006/jmbi.1995.0616).

For the data set the following is noted: Hordeum vulgare; pH 6.25; 25 °C; GdnHCl; Fluorescence; MES 50 mM; reversible: yes; whole UniProt chain shown.

B1: Subtilisin-chymotrypsin inhibitor-2A wild type, P01053 (protein)
chain: MSSVEKKPEGVNTGAGDRHNLKTEWPELVGKSVEEAKKVILQDKPEAQIIVLPVGTIVTMEYRIDRVRLFVDKLDNIAQVPRVG
In the case of B1, the denaturant m value amounted to 1.9 kcal/mol/M, the “denaturant midpoint (higher = more stable)” value is 4 M and the unfolding free energy turned out to be 7.6 kcal/mol.
